B2: SGT1 (suppressor of G2 allele of skp1), Nannochloropsis gaditana, genome locus Naga_100120 g12 (other)
chain: MEQAQLAFMDEDYATADELFSAYIATHPDDATALVSRAAVHLKLNQPSQALHDAEAAASLKSDFEVAWYRQGVAAFALEDFSRAKEAFMRGRALLGDRPEPQGRRYDVWLRKTTLELGEHDEQGMTVVAEGGRKELRQEEGAKGIEATVPRSQPSPTHPPSSAPAIPAGHVKFQFYQTTSYVTVTILYKGLREEDANVSVQPRHLKVSVGADGDVLFDRALFETVVPEESTSKIFATKIEVKLRKAMEGLTWPELCALSPGAAASVHTVSAPTPDSHATALPSLAQGPATAPSSKPLRPYASTKDWGAVEKEISKELESEKPEGDEALNTLFRDIYAKGSDETRRAMVKSFQTSGGTVLSTNWEEVGKKDYEKEEERKAPEGMEWRKWGV
notes: also called Nannochloropsis SGT1; gene 1852

Test [1] deals with B2. In words: yeast two-hybrid screen, CRD1-117 bait against Nannochloropsis cDNA prey library; growth and blue color on selective media. As for the experimental part: The prey library was screened for by mating of the library-containing (prey) strain with each individual bait strain (i.e., a strain expressing CRD1-117) according to the Matchmaker™ Gold Yeast Two-Hybrid System User Manual (Clontech). […] Based on these numbers, it is estimated that more than 10 million interactions were tested.
After subtraction of false positives from the other domain hits, one hit remained which was unique to this domain: the gene encoding SGT1 (SEQ ID NO:27) encoded at N. gaditana genome locus Naga_100120 g12; Genbank Accession AZIL01000354.1. This gene is commonly referred to as “suppressor of G2 allele of skp1” because it was discovered in a genetic suppressor screen aimed at suppressing skp1-4, a mutant with defects in yeast kinetochore function (Hieter et al. 1999 Nature 402:362-363). SGT1 is an essential component of the yeast kinetochore assembly pathway and has been associated to a number of different biological roles in different organisms. Furthermore, mammalian SGT1 is known to interact with an Hsp90 chaperone and melusin, the human homolog of CHORD-3266. Similarly, the Arabidopsis CHORD-3266 homolog, RAR1, is also known to bind Arabidopsis SGT1 (Takahashi et al. (2003) PNAS USA 100:11777-11782). […]

The target of test [2] is T1, SKP1-8611 (Nannochloropsis Skp1 protein) (Nannochloropsis gaditana).
T1 construct: also called SKP-8611
T1 chain: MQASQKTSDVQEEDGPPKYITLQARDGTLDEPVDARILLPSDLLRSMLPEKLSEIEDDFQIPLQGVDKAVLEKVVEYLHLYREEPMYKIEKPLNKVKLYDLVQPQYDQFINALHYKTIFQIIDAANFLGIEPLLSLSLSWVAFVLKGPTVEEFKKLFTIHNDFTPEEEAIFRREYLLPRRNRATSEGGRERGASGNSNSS
In words: direct yeast two-hybrid assay. An excerpt: (§1) In order to determine whether SGT1 (SEQ ID NO:27) and Skp1 were members of the same pathway, we tested whether Nannochloropsis SGT1 was capable of binding to Nannochloropsis Skp1 by Y2H. Two different Skp1 proteins were identified in Nannochloropsis, SKP1-8611 (polynucleotide SEQ ID NO:9 and polypeptide SEQ ID NO:28) and Skp1-7479 (SEQ ID NO:29 encoded at N. gaditana genome locus Naga_100005 g56, Genbank Accession AZIL01000936). Protein coding sequences were amplified using sequence specific primers for SGT1 (SEQ ID NO:30 and SEQ ID NO:31), SKP-8611 (SEQ ID NO:32 and SEQ ID NO:33), and SKP-7479 (SEQ ID NO:34 and SEQ ID NO:35) and cloned into the prey and bait vectors as described above.

The target of test [3] is T2, Skp1-7479 (Nannochloropsis Skp1 protein, genome locus Naga_100005 g56) (Nannochloropsis gaditana).
T2 construct: also called SKP-7479
T2 chain: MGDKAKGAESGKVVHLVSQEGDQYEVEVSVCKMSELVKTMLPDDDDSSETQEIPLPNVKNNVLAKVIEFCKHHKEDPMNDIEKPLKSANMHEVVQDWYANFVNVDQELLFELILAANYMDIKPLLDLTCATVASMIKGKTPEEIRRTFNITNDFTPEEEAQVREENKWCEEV
Description: direct yeast two-hybrid assay.
Source text: as §1

B1: CRD1-117 (fragment of CHORD-3266 protein, amino acids 1-117) (other)
chain: MKLYVHYEEAGQDEKALTLKLTLPKSWAEQPLLQVLELFIESYNKKKTGLPPLDKDFVHMEKAGGVILPVGNIVSDMLSDRDDLYIRSGPGPARGKIAHLSSPPNAHASSESSTGLL
notes: Used as bait in the yeast two-hybrid screen, cloned into bait vector pGBKT7 (Clontech); also called CHORD domain fragment 1-117
For B1, the binding result in test [1] is listed as “binds”. For the molecule B2, the binding result in test [2] and in test [3] was “binds” each time.

Values taken from US20170067069A1 (SYNTHETIC GENOMICS, published 2017).
